The data set concerns the molecule itself. In words: SEC; native whole-cell lysate of NIH3T3 AP1 KO cells on Yarra SEC-2000 (1 kDa to 300 kDa); fractions immunoblotted.

B1: phosphoribosyl pyrophosphate synthetase 2 (PRPS2), mouse, endogenous (enzyme, UniProt Q9CS42 1-318, looked up)
chain: MPNIVLFSGSSHQDLSQRVADRLGLELGKVVTKKFSNQETSVEIGESVRGEDVYIIQSGCGEINDNLMELLIMINACKIASSSRVTAVIPCFPYARQDKKDKSRAPISAKLVANMLSVAGADHIITMDLHASQIQGFFDIPVDNLYAEPAVLQWIRENITEWRNCIIVSPDAGGAKRVTSIADRLNVEFALIHKERKKANEVDRMVLVGDVKDRVAILVDDMADTCGTICHAADKLLSAGATKVYAILTHGIFSGPAISRINSAAFEAVVVTNTIPQEDKMKHCSKIQVIDISMILAEAIRRTHNGESVSYLFSHVPL
notes: PRPS2, mouse, endogenous protein of NIH3T3 cells and mouse tissue; also called P2; source: endogenous, NIH3T3 (parental and CRISPR knockout clones), native lysate; endogenous, C57BL/6 mouse kidney, native lysate
On to B1, for which the “stoichiometry N” value was 2.

For the origin of these results see paper doi:10.1101/2024.10.01.616059 (bioRxiv, 2024).
